Biological target: alpha1 antitrypsin (AAT), P01009
Sequence (P01009 whole entry, looked up): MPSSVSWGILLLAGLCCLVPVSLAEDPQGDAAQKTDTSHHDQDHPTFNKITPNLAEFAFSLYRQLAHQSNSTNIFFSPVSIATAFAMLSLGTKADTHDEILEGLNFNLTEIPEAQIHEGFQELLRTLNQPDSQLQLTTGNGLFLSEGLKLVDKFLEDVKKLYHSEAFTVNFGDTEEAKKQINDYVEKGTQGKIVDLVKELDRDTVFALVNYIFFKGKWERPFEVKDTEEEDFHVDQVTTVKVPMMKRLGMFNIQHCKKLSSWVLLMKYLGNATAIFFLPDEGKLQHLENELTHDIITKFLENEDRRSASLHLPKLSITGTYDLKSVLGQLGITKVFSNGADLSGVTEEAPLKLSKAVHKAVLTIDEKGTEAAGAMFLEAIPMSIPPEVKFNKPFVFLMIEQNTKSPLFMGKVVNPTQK

B1: wildtype Cela2a (protein)
chain: VVGGEEARPNSWPWQVSLQYSSNGKWYHTCGGSLIANSWVLTAAHCISSSRTYRVGLGRHNLYVAESGSLAVSVSKIVVHKDWNSNQISKGNDIALLKLANPVSLTDKIQLACLPPAGTILPNNYPCYVTGWGRLQTNGAVPDVLQQGRLLVVDYATCSSSAWWGSSVKTSMICAGGDGVISSCNGDSGGPLNCQASDGRWQVHGIVSFGSRLGCNYYHKPSVFTRVSNYIDWINSVIANN
cleavage of alpha1-antitrypsin: Cela2a cleaves alphal-antitrypsin.

Reference: US20180369344
